# Laboratory results: paper PMC4274631 (RNA, 2015)
# Where two headings read alike, the source gives them in different places. Where no end group is shown, it is not given here. fluorescein = fluorescein label
# T1: Pct1 (Schizosaccharomyces pombe, UniProt Q9P6Q6)
# T1 sequence (Q9P6Q6 1-303): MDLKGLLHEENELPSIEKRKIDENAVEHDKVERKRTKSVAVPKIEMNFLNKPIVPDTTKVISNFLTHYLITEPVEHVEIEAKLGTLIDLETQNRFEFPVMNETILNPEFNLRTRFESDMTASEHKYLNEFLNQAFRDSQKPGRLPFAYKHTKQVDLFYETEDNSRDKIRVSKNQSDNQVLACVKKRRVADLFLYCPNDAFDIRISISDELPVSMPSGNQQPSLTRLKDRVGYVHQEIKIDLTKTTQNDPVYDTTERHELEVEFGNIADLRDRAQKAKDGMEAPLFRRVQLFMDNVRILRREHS
# T2: S. pombe RNA triphosphatase Pct1 M100R (S. pombe, UniProt Q9P6Q6 1-303, M100R)
# T2 sequence (looked up): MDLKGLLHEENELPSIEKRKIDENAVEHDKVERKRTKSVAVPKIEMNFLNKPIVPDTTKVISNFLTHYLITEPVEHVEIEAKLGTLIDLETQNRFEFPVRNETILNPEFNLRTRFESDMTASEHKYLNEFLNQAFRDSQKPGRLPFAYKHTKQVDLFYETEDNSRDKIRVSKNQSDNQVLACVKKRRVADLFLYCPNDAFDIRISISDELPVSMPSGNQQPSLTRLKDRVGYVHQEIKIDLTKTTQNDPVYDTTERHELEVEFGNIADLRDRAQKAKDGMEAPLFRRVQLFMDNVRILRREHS
# T3: S. pombe RNA triphosphatase Pct1 M100A (S. pombe, UniProt Q9P6Q6 1-303, M100A)
# T3 sequence (looked up): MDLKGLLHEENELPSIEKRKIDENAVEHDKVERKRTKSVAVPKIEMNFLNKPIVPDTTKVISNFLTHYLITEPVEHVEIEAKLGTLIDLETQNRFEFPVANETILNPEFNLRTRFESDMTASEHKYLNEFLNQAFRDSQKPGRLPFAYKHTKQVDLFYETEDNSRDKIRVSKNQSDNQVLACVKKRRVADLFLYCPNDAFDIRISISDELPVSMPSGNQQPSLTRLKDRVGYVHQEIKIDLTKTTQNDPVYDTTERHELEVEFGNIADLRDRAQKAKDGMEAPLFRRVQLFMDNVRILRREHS
# T4: S. pombe RNA triphosphatase Pct1 (wild type) (S. pombe, UniProt Q9P6Q6 1-303)
# T4 sequence (looked up): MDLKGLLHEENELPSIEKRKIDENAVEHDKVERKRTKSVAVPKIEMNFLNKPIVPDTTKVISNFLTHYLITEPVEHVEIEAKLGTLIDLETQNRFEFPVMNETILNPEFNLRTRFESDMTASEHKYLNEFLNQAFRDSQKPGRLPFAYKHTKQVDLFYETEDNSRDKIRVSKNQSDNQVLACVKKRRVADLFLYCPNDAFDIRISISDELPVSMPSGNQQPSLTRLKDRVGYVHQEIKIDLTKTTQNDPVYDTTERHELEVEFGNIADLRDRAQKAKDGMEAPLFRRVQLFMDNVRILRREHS
# T5: Pct1 M100A (Schizosaccharomyces pombe, UniProt Q9P6Q6, M100A)
# T5 sequence (Q9P6Q6 1-303 M100A): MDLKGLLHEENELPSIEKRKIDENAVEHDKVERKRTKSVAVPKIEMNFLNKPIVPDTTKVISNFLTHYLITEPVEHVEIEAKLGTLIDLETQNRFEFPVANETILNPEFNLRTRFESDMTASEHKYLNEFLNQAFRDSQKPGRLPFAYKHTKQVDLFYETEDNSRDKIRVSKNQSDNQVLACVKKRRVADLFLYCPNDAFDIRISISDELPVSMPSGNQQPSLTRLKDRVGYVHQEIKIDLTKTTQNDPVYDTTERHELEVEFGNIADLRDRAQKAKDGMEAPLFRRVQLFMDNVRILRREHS
# Experiments:
# [1] = tested on: Plus3 domain of Rtf1; details: phosphorylated CTR peptide; pdb 4L1U; ref Wier et al. 2013; cited from earlier work
# [2] = molecular target: T1, Pct1; format: binding, S. pombe; details: 180-fold higher than Kd for Spt5-(801–898)
# [3] = tested on: S. pombe RNA triphosphatase Pct1; details: ref Pei et al. 2001b; cited from earlier work
# [4] = molecular target: T2, S. pombe RNA triphosphatase Pct1 M100R; experiment: fluorescence polarisation
# [5] = molecular target: T3, S. pombe RNA triphosphatase Pct1 M100A; experiment: fluorescence polarisation
# [6] = molecular target: T4, S. pombe RNA triphosphatase Pct1 (wild …); experiment: fluorescence polarisation
# [7] = molecular target: T5, Pct1 M100A; experiment: Fluorescence polarization binding of Spt5-; design: species or system S. pombe; details: Pct1 M100A versus wild-type Pct1
# [8] = molecular target: T4, S. pombe RNA triphosphatase Pct1 (wild …); experiment: fluorescence polarisation; remark: listed apart in the source
# [9] = molecular target: T4, S. pombe RNA triphosphatase Pct1 (wild …); experiment: fluorescence polarisation; remark: listed apart in the source
# [10] = molecular target: T4, S. pombe RNA triphosphatase Pct1 (wild …); experiment: crystal structure
molecule,measurement,setting,value
SGSRTPPMYGSQ,binding to Rtf1 Plus3 domain in crystal,[1],bound
SGSKTPAWNSGSKTPAWNSGSK,Kd relative to the Kd of Pct1 for the longer Spt5-(801–898) ligand,[2],180 fold
O=P(O)(O)OP(=O)(O)OP(=O)(O)O [tripolyphosphate],competitive inhibition,[3],high-affinity competitive inhibitor
"BODIPY-FL-N(Cys)-Spt5-(801-898) (domain or fragment, S. pombe, BODIPY-FL at the N-terminus via maleimide chemistry (on the added N-terminal cysteine)) CISTADGPNVPNWAQGARTPAVANGSRTPAWNTGSRTPAWNSGSKTPAWNSGSRTPAWNSGNKTPAWNAGSRTPAWNSGNKTPAWNVGNKTPAWNSGAK",Kd,[4],21.4 ± 2.4 µM
same,Kd,[5],1.4 ± 0.15 µM
same,Kd,[6],0.68 ± 0.1 µM
"Spt5-(801–898): purified recombinant Spt5-(801–898) protein, comprising 10 nonamer repeats, labeled at the N-terminus with BODIPY-FL (protein, BODIPY-FL at the N-terminus via maleimide chemistry (on the added N-terminal cysteine)) CISTADGPNVPNWAQGARTPAVANGSRTPAWNTGSRTPAWNSGSKTPAWNSGSRTPAWNSGNKTPAWNAGSRTPAWNSGNKTPAWNVGNKTPAWNSGAK",effect of M100A on Spt5 CTD binding,[7],twofold
fluorescein-SGSKTPAWNSGSKTPAWNSGSK [fluorescein-labeled 22-amino acid synthetic Spt5 CTD peptide SGSKTPAWNSGSKTPAWNSGSK],Kd,[8],124 ± 10 µM
SGSKTPAWNSGSKTPAWNSGSK [unphosphorylated 22-amino acid synthetic Spt5 CTD peptide SGSKTPAWNSGSKTPAWNSGSK (untagged)],Ki,[9],79 ± 9 µM
"TPAWNSGSRTPAWNSGSK [18-mer Spt5-CTD peptide TPAWNSGSRTPAWNSGSK, Spt5-(845-862)]",stoichiometry N,[10],2 peptides per Pct1 homodimer
